Reference: article doi:10.1101/2022.04.18.488652 (bioRxiv, 2022)

Target: the molecule itself
Assay: SEC

Row | Protein | stoichiometry N
1 | NaKΔ18 (domain or fragment, B. cereus) WKDKEFQVLFVLTILTLISGTIFYSTVEGLRPIDALYFSVVTLTTVGDGNFSPQTDFGKIFTILYIFIGIGLVFGFIHKLAVNVQLPSILSNRKKE | 4
2 | NaKΔ18 L35A+L61A (domain or fragment, B. cereus, UniProt Q81HW2 19-114, looked up) WKDKEFQVLFVLTILTAISGTIFYSTVEGLRPIDALYFSVVTATTVGDGNFSPQTDFGKIFTILYIFIGIGLVFGFIHKLAVNVQLPSILSNRKKE | 4
3 | NaKΔ18 L61T (domain or fragment, B. cereus, UniProt Q81HW2 19-114, looked up) WKDKEFQVLFVLTILTLISGTIFYSTVEGLRPIDALYFSVVTTTTVGDGNFSPQTDFGKIFTILYIFIGIGLVFGFIHKLAVNVQLPSILSNRKKE | 4
4 | NaKΔ18 L35A (domain or fragment, B. cereus, UniProt Q81HW2 19-114, looked up) WKDKEFQVLFVLTILTAISGTIFYSTVEGLRPIDALYFSVVTLTTVGDGNFSPQTDFGKIFTILYIFIGIGLVFGFIHKLAVNVQLPSILSNRKKE | 4
5 | NaKΔ18 L61A (domain or fragment, B. cereus, UniProt Q81HW2 19-114, looked up) WKDKEFQVLFVLTILTLISGTIFYSTVEGLRPIDALYFSVVTATTVGDGNFSPQTDFGKIFTILYIFIGIGLVFGFIHKLAVNVQLPSILSNRKKE | 4
